The assay addresses T1, GST-CCT4 (Drosophila, UniProt Q9VK69 1-533).
T1 construct: CCT4, Drosophila; source: E. coli BL21 (IPTG-inducible), purified using a standard method
T1 sequence (looked up): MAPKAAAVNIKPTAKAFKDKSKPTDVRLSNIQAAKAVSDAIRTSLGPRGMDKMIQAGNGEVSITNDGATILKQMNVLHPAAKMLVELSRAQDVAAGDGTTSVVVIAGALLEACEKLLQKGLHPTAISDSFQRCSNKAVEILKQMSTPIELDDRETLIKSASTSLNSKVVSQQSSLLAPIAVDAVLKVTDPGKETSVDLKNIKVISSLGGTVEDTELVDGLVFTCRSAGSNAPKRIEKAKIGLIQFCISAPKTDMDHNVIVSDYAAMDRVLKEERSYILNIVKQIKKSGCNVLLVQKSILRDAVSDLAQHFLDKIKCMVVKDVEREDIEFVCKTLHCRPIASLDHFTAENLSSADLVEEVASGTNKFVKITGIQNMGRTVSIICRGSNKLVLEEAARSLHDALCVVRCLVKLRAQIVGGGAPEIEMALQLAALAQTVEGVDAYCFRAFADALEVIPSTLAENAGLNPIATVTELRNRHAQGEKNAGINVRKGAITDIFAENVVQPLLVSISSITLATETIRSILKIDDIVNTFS
Put plainly: pull-down; MBP-pulldown of MBP-tagged bait with GST-CCT4; pulldown buffer 20 mM Tris pH 7.5, 150 mM NaCl, 0.5 mM EDTA, 10% glycerol, 0.1% Triton X-100, 1 mM DTT; blots with anti-MBP and anti-GST. The conditions noted are these: both partners purified.

The text below walks through data of publication PMC6756063, “TRiC/CCT chaperonins are essential for organ growth by interacting with insulin/TOR signaling in Drosophila” (Oncogene, 2019).

B1: MBP-Rheb (natural protein, Drosophila, UniProt Q9VND8 1-182, looked up)
chain: MPTKERHIAMMGYRSVGKSSLCIQFVEGQFVDSYDPTIENTFTKIERVKSQDYIVKLIDTAGQDEYSIFPVQYSMDYHGYVLVYSITSQKSFEVVKIIYEKLLDVMGKKYVPVVLVGNKIDLHQERTVSTEEGKKLAESWRAAFLETSAKQNESVGDIFHQLLILIENENGNPQEKSGCLVS
notes: also called full-length Rheb; source: E. coli BL21 (IPTG-inducible), purified using a standard method
As for B1, the binding result is on record as “binds”.
